Patent US20110059077A1 (JURIDICAL FDN THE CHEMO SERO THERAPEUTIC RES INST, published 2011)
Like-named read-outs stand apart in the source and are kept apart here.

Assays:
Assay in all cases: cell-based or functional assay
[1] = molecular target: T1, human α9 integrin molecule expressed on SW480 cells (human, UniProt Q13797 30-1035; P05556 21-798)
[2] = molecular target: T1, human α9 integrin molecule expressed on …; remark: listed apart in the source
[3] = molecular target: T1, human α9 integrin molecule expressed on …; remark: listed apart in the source

T1 sequence (Q13797 30-1035, form in doubt, chain 1 of 2): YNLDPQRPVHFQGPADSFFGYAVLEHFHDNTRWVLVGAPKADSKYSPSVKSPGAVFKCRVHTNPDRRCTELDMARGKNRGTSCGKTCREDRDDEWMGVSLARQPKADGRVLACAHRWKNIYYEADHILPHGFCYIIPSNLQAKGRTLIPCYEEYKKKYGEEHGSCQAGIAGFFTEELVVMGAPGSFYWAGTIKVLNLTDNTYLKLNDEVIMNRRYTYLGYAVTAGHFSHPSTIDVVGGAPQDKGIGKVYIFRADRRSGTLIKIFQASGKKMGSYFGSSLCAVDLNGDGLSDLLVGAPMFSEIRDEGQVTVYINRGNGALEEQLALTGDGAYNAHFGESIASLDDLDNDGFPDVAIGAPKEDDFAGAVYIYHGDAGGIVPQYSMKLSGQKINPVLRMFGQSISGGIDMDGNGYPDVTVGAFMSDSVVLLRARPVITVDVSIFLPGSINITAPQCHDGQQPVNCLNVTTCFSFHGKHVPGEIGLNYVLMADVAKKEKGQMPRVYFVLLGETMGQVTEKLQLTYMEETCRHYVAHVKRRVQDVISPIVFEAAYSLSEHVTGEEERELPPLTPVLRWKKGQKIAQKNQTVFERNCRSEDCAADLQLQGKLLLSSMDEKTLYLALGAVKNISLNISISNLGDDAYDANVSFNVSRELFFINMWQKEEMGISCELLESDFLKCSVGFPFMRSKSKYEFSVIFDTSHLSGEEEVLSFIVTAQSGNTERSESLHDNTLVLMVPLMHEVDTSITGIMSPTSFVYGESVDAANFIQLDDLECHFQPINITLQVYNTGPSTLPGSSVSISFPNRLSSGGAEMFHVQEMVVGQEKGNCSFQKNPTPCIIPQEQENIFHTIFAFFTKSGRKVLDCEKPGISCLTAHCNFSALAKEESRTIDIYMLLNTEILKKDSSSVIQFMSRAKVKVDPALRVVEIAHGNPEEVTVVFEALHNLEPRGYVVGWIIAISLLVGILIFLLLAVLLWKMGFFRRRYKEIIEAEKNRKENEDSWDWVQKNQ
T1 sequence (P05556 21-798, form in doubt, chain 2 of 2): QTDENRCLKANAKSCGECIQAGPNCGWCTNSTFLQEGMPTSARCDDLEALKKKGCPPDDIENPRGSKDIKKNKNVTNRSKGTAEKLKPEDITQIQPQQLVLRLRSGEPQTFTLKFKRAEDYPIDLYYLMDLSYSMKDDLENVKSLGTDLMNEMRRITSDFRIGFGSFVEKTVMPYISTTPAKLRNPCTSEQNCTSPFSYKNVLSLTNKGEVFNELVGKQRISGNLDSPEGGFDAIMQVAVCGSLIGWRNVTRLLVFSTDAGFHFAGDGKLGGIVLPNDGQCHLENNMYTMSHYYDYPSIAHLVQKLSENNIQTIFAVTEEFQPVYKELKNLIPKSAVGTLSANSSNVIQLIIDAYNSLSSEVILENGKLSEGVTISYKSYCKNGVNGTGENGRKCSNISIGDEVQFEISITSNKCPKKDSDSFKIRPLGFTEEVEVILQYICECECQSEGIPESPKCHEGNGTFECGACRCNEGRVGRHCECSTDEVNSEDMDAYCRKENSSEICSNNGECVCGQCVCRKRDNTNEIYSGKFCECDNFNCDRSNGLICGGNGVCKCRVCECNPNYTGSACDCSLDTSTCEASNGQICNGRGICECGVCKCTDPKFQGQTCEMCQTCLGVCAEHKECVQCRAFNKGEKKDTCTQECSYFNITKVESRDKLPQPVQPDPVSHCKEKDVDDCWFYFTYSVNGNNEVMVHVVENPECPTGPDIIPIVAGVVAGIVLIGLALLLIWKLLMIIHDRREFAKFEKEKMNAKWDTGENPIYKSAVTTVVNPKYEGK

specific activity (IC50 relative to mouse Y9A2 = 1), cell adhesion inhibition, SW480/hα9 cells to nOPN-RAA [1]	specific activity (IC50 relative to mouse Y9A2 = 1), cell adhesion inhibition, SW480/hα9 cells to nOPN-RAA [2]	specific activity (IC50 relative to mouse Y9A2 = 1), cell adhesion inhibition to human Tenascin C-RAA [3]	specific activity (IC50 relative to mouse Y9A2 = 1), cell adhesion inhibition to human VCAM-1 [3]	Binder
1 ratio to IC50 of mouse Y9A2	1 ratio to IC50 of mouse Y9A2	1 ratio to IC50 of mouse Y9A2	1 ratio to IC50 of mouse Y9A2	mouse anti-human α9 integrin antibody Y9A2 (antibody, V domains shown) VH: QVQLQQSGAELANPGASVKMSCKASGYTLTTYWMHWVKQRPGQGLEWIGYINPSSGYTEYNQKFKDKATLTADKSSSTAYMQLTSLTSEDSAVYYCAIYGDYGDFYFDYWGQGTTLTVSS VL: SIVMTQTPKFLLVSAGDRVTMTCKASQSVNTDVAWFQQKPGQSPKLLIYFASNHYTGVPDRFTGSGYGTDFTFTISTVQAEDLAIYFCRQDYSSPFTFGGGTKLEIKR
	0.23 ratio to IC50 of mouse Y9A2	0.35 ratio to IC50 of mouse Y9A2	0.44 ratio to IC50 of mouse Y9A2	RY9A2v11(M34L)012 antibody (antibody, human IgG1, kappa, V domains shown) VH: QVQLVQSGAEVKKPGSSVKMSCKASGYTLTTYWLHWVKQRPGQGLEWIGYINPSSGYTEYNQKFQGRVTITADKSTSTAYMELSSLRSEDTAVYYCAIYGDYGDFYFDYWGQGTTVTVSS VL: DIQMTQSPSSLSASVGDRVTITCRASQSVNTDVAWYQQKPGKAPKLLIYFASNHYTGVPSRFSGSGSGTDFTFTISSLQPEDIATYYCRQDYSSPFTFGGGTKVEIKR
0.77 ratio to IC50 of mouse Y9A2				RY9A2v501 antibody (antibody, V domains shown) VH: QVQLVQSGAEVKKPGSSVKMSCKASGYTLTTYWMHWVKQRPGQGLEWIGYINPSSGYTEYNQKFKDRVTITADKSTSTAYMELSSLRSEDTAVYYCAIYGDYGDFYFDYWGQGTTVTVSS VL: DIQMTQSPSSLSASVGDRVTITCKASQSVNTDVAWYQQKPGKAPKLLIYFASNHYTGVPSRFSGSGSGTDFTFTISSLQPEDIATYYCRQDYSSPFTFGGGTKVEIKR
	0.23 ratio to IC50 of mouse Y9A2	0.26 ratio to IC50 of mouse Y9A2	0.95 ratio to IC50 of mouse Y9A2	RY9A2v12(M34L)012 antibody (antibody, human IgG1, kappa, V domains shown) VH: QVQLVQSGAEVKKPGSSVKVSCKASGYTLTTYWLHWVRQAPGQGLEWMGYINPSSGYTEYNQKFQGRVTITADKSTSTAYMELSSLRSEDTAVYYCAIYGDYGDFYFDYWGQGTTVTVSS VL: DIQMTQSPSSLSASVGDRVTITCRASQSVNTDVAWYQQKPGKAPKLLIYFASNHYTGVPSRFSGSGSGTDFTFTISSLQPEDIATYYCRQDYSSPFTFGGGTKVEIKR
	0.29 ratio to IC50 of mouse Y9A2	0.44 ratio to IC50 of mouse Y9A2	1 ratio to IC50 of mouse Y9A2	RY9A2v5(IAW)01 antibody (antibody, human IgG1, kappa, V domains shown) VH: QVQLVQSGAEVKKPGSSVKMSCKASGYTLTTYWIHWVKQRPGQGLEWIGYINPSSGYTEYNQKFKDRVTITADKSTSTAYMELSSLRSEDTAVYYCAIYGDYGAWYFDYWGQGTTVTVSS VL: DIQMTQSPSSLSASVGDRVTITCKASQSVNTDVAWYQQKPGKAPKLLIYFASNHYTGVPSRFSGSGSGTDFTFTISSLQPEDIATYYCRQDYSSPFTFGGGTKVEIKR
0.82 ratio to IC50 of mouse Y9A2				RY9A2v801 antibody (antibody, V domains shown) VH: QVQLVQSGAEVKKPGSSVKVSCKASGYTLTTYWMHWVRQAPGQGLEWMGYINPSSGYTEYNQKFKDRVTITADKSTSTAYMELSSLRSEDTAVYYCAIYGDYGDFYFDYWGQGTTVTVSS VL: DIQMTQSPSSLSASVGDRVTITCKASQSVNTDVAWYQQKPGKAPKLLIYFASNHYTGVPSRFSGSGSGTDFTFTISSLQPEDIATYYCRQDYSSPFTFGGGTKVEIKR
